The text below walks through data of patent US20240270846A1.

The assay has as its target recombinant human CD3 (human) (UniProt P07766). The experiment in a line: SPR (Biacore T200, 37 degrees C), antibody captured by anti-human Fc, antigen as analyte, 1:1 model.

Chain of recombinant human CD3 (human) (P07766 23-126): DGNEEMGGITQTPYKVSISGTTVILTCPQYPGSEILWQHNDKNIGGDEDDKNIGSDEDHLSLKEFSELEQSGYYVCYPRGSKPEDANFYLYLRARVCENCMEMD

B1: GPC3/CtrlxCD3 trispecific antibody (protein, from a related filing, part only)
VH 1: QVQLVESGGGLVQPGRSLRLSCAASGFTFSNAWMHWVRQAPGKGLEWVAQIKDRANSYNTYYAESVKGRFTISRDDSKNSIYLQMNSLKTEDTAVYYCRYVHYTTYAGSSFSYGVDAWGQGTTVTVSS
VL 1: DIVMTQSPLSLPVTPGEPASISCRSSQPLVHSNRNTYLHWYQQKPGQAPRLLIYKVSNRFSGVPDRFSGSGSGTDFTLKISRVEAEDVGVYYCGQGTQVPYTFGQGTKLEIK
VH 2: QVQLVQSGAEVKKPGASVTVSCKASGYTFTDYEMHWIRQPPGEGLEWIGAIDGPTPDTAYSEKFKGRVTLTADKSTSTAYMELSSLTSEDTAVYYCTRFYSYTYWGQGTLVTVSS
VL 2: B1 VL 1
modifications: left off: another chain or arm of the molecule; a dimerising Fc or GST
Turning to B1, the dissociation constant Kd turned out to be 0.0178 µM, the koff came to 0.00151 s⁻¹ and the kon is 85000 M⁻¹ s⁻¹.

B2: Ctrl/CtrlxCD3 trispecific antibody (protein, part only; not given: Control arm variable domains, constant regions, part only)
VH: B1 VH 1
VL: B1 VL 1
Regarding B2, the dissociation constant (Kd) came to 0.0175 µM, the koff was 0.00147 s⁻¹ and the kon worked out at 83700 M⁻¹ s⁻¹.
